Common to all, as to details: both partners purified
The target of assay [1] is T1, human wt-ERα LBD (estrogen receptor alpha ligand-binding domain, amino acids 302-552) (human, UniProt P03372 302-552).
T1 sequence (looked up): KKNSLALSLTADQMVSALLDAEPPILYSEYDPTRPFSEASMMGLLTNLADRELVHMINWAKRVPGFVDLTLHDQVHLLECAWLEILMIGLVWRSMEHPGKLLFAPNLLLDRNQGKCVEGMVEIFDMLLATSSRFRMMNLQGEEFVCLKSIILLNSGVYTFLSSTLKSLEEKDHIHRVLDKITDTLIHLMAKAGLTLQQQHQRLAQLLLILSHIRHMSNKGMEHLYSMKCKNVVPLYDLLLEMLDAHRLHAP
As to the kind of experiment: fluorescence polarisation; fluorescence anisotropy; 4 nM fluorescein-SRC-1 NR2 peptide, LBD diluted 2-fold from 10 uM (ERα) or 20 uM (ERβ); with α-ZA at 20 uM (ERα) or 40 uM (ERβ); 20 mM Tris pH 8.0, 150 mM NaCl, 5 mM DTT, 10% glycerol. (In fluorescence polarisation assays a small probe gives low polarisation when free and higher when bound to something large.)

Assay [2] has as its target T2, human wt-ERβ LBD (estrogen receptor beta ligand-binding domain, amino acids 261-502) (human, UniProt Q92731 261-502).
T2 construct: Cloned into pET-32a; N-terminal thioredoxine-hexahistidine tag removed with TEV protease; not shown: thioredoxin, N-terminal, cleaved; His6, N-terminal, cleaved
As to the kind of experiment: fluorescence polarisation; fluorescence anisotropy; 4 nM fluorescein-SRC-1 NR2 peptide, LBD diluted 2-fold from 10 uM (ERα) or 20 uM (ERβ); with HPTE at 20 uM (ERα) or 40 uM (ERβ); 20 mM Tris pH 8.0, 150 mM NaCl, 5 mM DTT, 10% glycerol.

In assay [3] the target is T2, human wt-ERβ LBD (estrogen receptor …). As to the kind of experiment: fluorescence polarisation; fluorescence anisotropy; 4 nM fluorescein-SRC-1 NR2 peptide, LBD diluted 2-fold from 10 uM (ERα) or 20 uM (ERβ); with BPC at 20 uM (ERα) or 40 uM (ERβ); 20 mM Tris pH 8.0, 150 mM NaCl, 5 mM DTT, 10% glycerol.
Assay [4] deals with T1, human wt-ERα LBD (estrogen receptor …). The description is as above.
The target of assay [5] is T2, human wt-ERβ LBD (estrogen receptor …). As to the kind of experiment: fluorescence polarisation; fluorescence anisotropy; 4 nM fluorescein-SRC-1 NR2 peptide, LBD diluted 2-fold from 10 uM (ERα) or 20 uM (ERβ); with BP-2 at 20 uM (ERα) or 40 uM (ERβ); 20 mM Tris pH 8.0, 150 mM NaCl, 5 mM DTT, 10% glycerol.
Assay [6] has the same target. As to the kind of experiment: fluorescence polarisation; fluorescence anisotropy; 4 nM fluorescein-SRC-1 NR2 peptide, LBD diluted 2-fold from 10 uM (ERα) or 20 uM (ERβ); in the absence of ligand (apo-receptor); 20 mM Tris pH 8.0, 150 mM NaCl, 5 mM DTT, 10% glycerol.
The target in assay [7] is T1, human wt-ERα LBD (estrogen receptor …). The assay is described as above.
The target of assay [8] is T2, human wt-ERβ LBD (estrogen receptor …). As to the kind of experiment: fluorescence polarisation; fluorescence anisotropy; 4 nM fluorescein-SRC-1 NR2 peptide, LBD diluted 2-fold from 10 uM (ERα) or 20 uM (ERβ); with E2 at 20 uM (ERα) or 40 uM (ERβ); 20 mM Tris pH 8.0, 150 mM NaCl, 5 mM DTT, 10% glycerol.
The target of assay [9] is T1, human wt-ERα LBD (estrogen receptor …). The assay is described as above.
Assay [10] concerns the target T2, human wt-ERβ LBD (estrogen receptor …). As to the kind of experiment: fluorescence polarisation; fluorescence anisotropy; 4 nM fluorescein-SRC-1 NR2 peptide, LBD diluted 2-fold from 10 uM (ERα) or 20 uM (ERβ); with TCBPA at 20 uM (ERα) or 40 uM (ERβ); 20 mM Tris pH 8.0, 150 mM NaCl, 5 mM DTT, 10% glycerol.
Assay [11] shares this target. As to the kind of experiment: fluorescence polarisation; fluorescence anisotropy; 4 nM fluorescein-SRC-1 NR2 peptide, LBD diluted 2-fold from 10 uM (ERα) or 20 uM (ERβ); with 4-OP at 20 uM (ERα) or 40 uM (ERβ); 20 mM Tris pH 8.0, 150 mM NaCl, 5 mM DTT, 10% glycerol.
The target is the same in assay [12]. As to the kind of experiment: fluorescence polarisation; fluorescence anisotropy; 4 nM fluorescein-SRC-1 NR2 peptide, LBD diluted 2-fold from 10 uM (ERα) or 20 uM (ERβ); with chlordecone at 20 uM (ERα) or 40 uM (ERβ); 20 mM Tris pH 8.0, 150 mM NaCl, 5 mM DTT, 10% glycerol.

Where no end group is shown, it is not given here. fluorescein = fluorescein label on the N-terminus of the peptide

T2 sequence (Q92731 261-502): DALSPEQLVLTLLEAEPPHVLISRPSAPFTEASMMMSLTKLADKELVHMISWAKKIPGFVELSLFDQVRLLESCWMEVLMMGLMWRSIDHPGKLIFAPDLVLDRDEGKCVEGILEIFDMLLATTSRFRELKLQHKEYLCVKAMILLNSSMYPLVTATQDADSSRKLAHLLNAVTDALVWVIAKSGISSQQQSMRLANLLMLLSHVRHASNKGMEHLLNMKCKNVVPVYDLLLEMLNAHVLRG

B1: fluorescein-RHKILHRLLQEGS peptide corresponding to the NR box 2-binding motif of SRC-1 (peptide)
peptide: fluorescein-RHKILHRLLQEGS
notes: also called SRC-1 NR2 peptide; fluorescein-labeled SRC-1 NR2 peptide; source: bought: EZbiolab
As usually defined, the Kd is a measure of binding affinity in units of concentration. Consider B1, for which the Kd came to 0.33 µM in [1]; 10.9 µM in [2]; 6.32 µM in [3]; 9.07 µM in assay [4]; 0.99 µM in [5]; 4.54 µM in [6]. Besides, the Kd in assay [7] was 6.28 µM; in [8], 0.68 µM; in assay [9], 0.11 µM; in assay [10], 4.33 µM; in assay [11] it was 1.55 µM; in assay [12] it was 9.13 µM.

The values are drawn from article PMC4256047, “Structural and Functional Profiling of Environmental Ligands for Estrogen Receptors” (Environmental Health Perspectives, 2014).
